What was measured:
[1] = molecular target: succinyl-Ala-Ala-Val-Ala-p-nitroanilide (Artificial Sequence)
[2] = molecular target: succinyl-Ala-Ala-Pro-Ala-p-nitroanilide (Artificial Sequence)
[3] = molecular target: succinyl-Ala-Ala-Pro-Phe-p-nitroanilide (Artificial Sequence)
[4] = molecular target: succinyl-Ala-Ala-Pro-Leu-p-nitroanilide

Substance	Specific activity (unit/mg protein), casein (unit/mg protein) (casein)	Specific activity (unit/mg protein), elastin-orcein (unit/mg protein) (elastin-orcein)	Specific activity (unit/mg protein), myofibril (unit/mg protein) (myofibrillar protein)	kcat /Km [1] [M⁻¹ s⁻¹]	kcat /Km [2] [M⁻¹ s⁻¹]	kcat /Km [3] [M⁻¹ s⁻¹]	kcat /Km [4] [M⁻¹ s⁻¹]
subtilisin YaB mutant G124L (enzyme)	1250	157	366				
subtilisin YaB mutant G124I (enzyme)	602	64	717				
subtilisin YaB mutant G124V (enzyme)	1400	425	605				
subtilisin YaB mutant G159A (enzyme)	7780	2080	2040				
subtilisin YaB mutant G124V (enzyme; unit assumed)				6480	416		
subtilisin YaB mutant G124A (enzyme)	3800	647	1020				
subtilisin YaB mutant G159A (enzyme; unit assumed)				15700	1040	40500	3860
subtilisin YaB mutant G159W (enzyme)	1630	324	672				
subtilisin YaB mutant G151I (enzyme)	511	138					
wild type subtilisin YaB (enzyme)	8250	541	5160				
subtilisin YaB mutant G159S (enzyme)	8940	1510	2330				
subtilisin YaB mutant G151A (enzyme; unit assumed)				56100	2690		5590
subtilisin YaB mutant G151V (enzyme)	618	148					
subtilisin YaB mutant G159V (enzyme)	431	37					
wild type subtilisin YaB (enzyme; unit assumed)				14200	1670	4600	5250
subtilisin YaB mutant G124A (enzyme; unit assumed)				122000	17000		
subtilisin YaB mutant G151A (enzyme)	1780	355	750				
subtilisin YaB mutant G159I (enzyme)	872	142					
subtilisin YaB mutant G159Y (enzyme)	1010	203					
subtilisin YaB mutant 151L (enzyme)	717	161					
subtilisin YaB mutant G159L (enzyme)	112	9					
subtilisin YaB mutant G159F (enzyme)	135	12					
subtilisin YaB mutant G159S (enzyme; unit assumed)				19800	1600	35700	4130

— US5972683
